This passage reports EC50 results from US7919584B1, “Methods and compositions for diagnosis and treatment of asthma” (Arbor Vita Corporation, priority 2005, dated 2011).

Ends that are not written are not given here. Peptide text beside a SMILES is read from it. * marks the point of attachment. Biotin = O=C1N[C@H]2[C@H](CS[C@H]2CCCCC(=O)*)N1

For test [1], the target named is T1, GORASP1 d1 (Homo sapiens, UniProt Q9BQQ3).
T1 construct: made in house; host or cells: E. coli (DH5α, BL21 or JM109)
The test can be described thus: modified G assay titration, peptide vs constant GST-PDZ domain fusion. Type of test: binding. As for the experimental part:
(§1) A Nunc Maxisorp 96 well Immunoplate (Nunc cat#62409-002) was coated with 100 μl of 5 μg/ml goat anti-GST polyclonal antibody (Amersham Pharmacia cat#27-457-01) and incubated overnight at 4° C. The plate was blocked by addition of 200 μl Assay Buffer (2% bovine serum albumin in PBS, pH 7.4) for 1 to 2 hours at room temperature, then washed three times in Assay Buffer.
(§2) 50 μl per well of GST-PDZ fusion proteins (5 μg/ml in Assay Buffer), or, as a negative control, GST polypeptide alone, was added to the plate, and incubated for 1 to 2 hours at 4° C.
(§3) Biotinylated peptides were prepared in Assay Buffer, in half the volume required at 40 μM. HRP-Streptavidin (Zymed cat#43-4323) was diluted 1:1000 in another half volume of Assay Buffer, then mixed with the peptides. The peptide-HRP mixtures were incubated for 20 minutes at room temperature. […]
(§4) The plate was then washed five times with room temperature PBS, and developed by addition of 100 μl/well of HRP substrate solution (3,3′,5,5′, tetramethylbensidine (TMB) (Dako cat#S1600)) for a maximum of 30 minutes in the dark at room temperature. The reaction of HRP and its substrate was terminated by addition of 100 μl of 0.18 M H2SO4 (Sigma cat#S1526), and the absorbance of each well of the plate was read at 450 nm.

For test [2], the target named is T2, KIAA1284 (Homo sapiens, UniProt Q9ULD6).
T2 construct: made in house; host or cells: E. coli (DH5α, BL21 or JM109)
T2 sequence (Q9ULD6 with tags, fused parts or gaps): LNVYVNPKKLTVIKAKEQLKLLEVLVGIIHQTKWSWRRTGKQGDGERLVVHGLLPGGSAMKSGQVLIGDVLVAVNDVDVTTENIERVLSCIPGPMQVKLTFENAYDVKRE
Described as above. Type of test: binding. As for the experimental part: as §1, §2, §3, §4

The target of test [3] is T3, GST-KIAA1284 PDZ domain fusion protein (human, UniProt P08515 1-218 = GST).
T3 construct: also called PDZK6; not shown: short vector-encoded linker
T3 sequence (P08515 1-218, tags or fused parts left off): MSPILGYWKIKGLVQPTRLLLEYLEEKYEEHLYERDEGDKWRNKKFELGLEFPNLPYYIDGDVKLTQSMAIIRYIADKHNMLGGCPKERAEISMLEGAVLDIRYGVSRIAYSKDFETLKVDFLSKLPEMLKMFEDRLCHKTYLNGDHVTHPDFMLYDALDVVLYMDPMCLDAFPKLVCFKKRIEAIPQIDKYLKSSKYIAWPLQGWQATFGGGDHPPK
The test can be described thus: modified G assay, peptide titrated against a constant amount of immobilized GST-PDZ fusion; Hill fit.

Test [4] addresses T4, GST-PSD95 d2 (PDZ domain 2) fusion protein (human, UniProt P78352 147-253).
T4 construct: domain: d2; not shown: glutathione-S transferase (GST) encoded by the pGEX-3X vector (Pharmacia); short vector-encoded linker
Described as above.

Test [5] has as its target T5, GST-TIP2 PDZ domain fusion protein (human, UniProt O14908 118-223).
T5 construct: domain: PDZ domain; not shown: glutathione-S transferase (GST) encoded by the pGEX-3X vector (Pharmacia); short vector-encoded linker
T5 sequence (looked up): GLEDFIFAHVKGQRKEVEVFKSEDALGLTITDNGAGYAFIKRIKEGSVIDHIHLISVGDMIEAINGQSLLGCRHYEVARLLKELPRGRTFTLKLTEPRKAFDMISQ
The test is described as above.

Test [6] concerns the target T6, GST-GORASP1 (PDZ #1) fusion protein (human, UniProt P08515 1-218 = GST).
T6 construct: also called GORASP1 d1; GRASP1; not shown: short vector-encoded linker (Gly-Ile, Gly-Ile-Pro-Gly-Asn or Gly-Ile-Pro, by cloning site); which one in this construct
The test is described as above.

T6 sequence (P08515 1-218, tags or fused parts left off): as the sequence (P08515 1-218, tags or fused parts left off) above
T1 sequence (Q9BQQ3 1-110): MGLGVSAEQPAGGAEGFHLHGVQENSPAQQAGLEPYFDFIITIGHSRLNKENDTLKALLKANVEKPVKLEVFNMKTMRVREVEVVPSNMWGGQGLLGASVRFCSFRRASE
T4 sequence (P78352 147-253): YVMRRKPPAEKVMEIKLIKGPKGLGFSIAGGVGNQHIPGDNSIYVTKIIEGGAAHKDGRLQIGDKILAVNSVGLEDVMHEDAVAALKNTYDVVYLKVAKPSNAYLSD

In the case of `CC[C@H](C)[C@H](NC(=O)[C@H](CCCNC(=N)N)NC(=O)[C@H](CCCNC(=N)N)NC(=O)[C@H](CCCNC(=N)N)NC(=O)[C@H](CCC(N)=O)NC(=O)[C@H](CCCNC(=N)N)NC(=O)[C@H](CCCNC(=N)N)NC(=O)[C@H](CCCCN)NC(=O)[C@H](CCCCN)NC(=O)[C@H](CCCNC(=N)N)NC(=O)CNC(=O)[C@H](Cc1ccc(O)cc1)NC(=O)CCCC[C@@H]1SC[C@@H]2NC(=O)N[C@@H]21)C(=O)NCC(=O)N[C@@H](CCC(=O)O)C(=O)N[C@@H](CC(C)C)C(=O)N[C@@H](CCC(N)=O)C(=O)N[C@@H](CC(C)C)C(=O)N[C@@H](CO)C(=O)N[C@H](C(=O)N[C@@H](C)C(=O)O)[C@@H](C)CC` [Tat-hCLCA1] (HELM PEPTIDE1{[O=C1N[C@H]2[C@H](CS[C@H]2CCCCC(=O)[*:2])N1].Y.G.R.K.K.R.R.Q.R.R.R.I.G.E.L.Q.L.S.I.A}$$$$V2.0), the concentration giving a half-maximal response (EC50) in test [1] worked out at 120 nM; in test [2] it was 74 nM.

B1: Tat-hCLCA1 peptide (11 residues of Tat coupled to the C-terminal 9 amino acids of hCLCA1), biotinylated (peptide)
peptide: Biotin-YGRKKRRQRRRIGELQLSIA
notes: Synthetic peptide, HPLC purified; pre-mixed with HRP-streptavidin in the modified G assay; also called Tat-hCLCA1 (SIA)
Consider B1, for which the EC50 in test [3] was 74 nM; in test [4], 3100 nM; in test [5], 1100 nM; in test [6] it was 120 nM.
